Experimental data from publication doi:10.1101/2023.02.01.526621 (bioRxiv, 2023).

Target: T1, GST-CESA3CD (catalytic domain of cellulose synthase CESA3 fused to GST) (Arabidopsis thaliana, UniProt Q941L0 305-843)
T1 sequence (looked up): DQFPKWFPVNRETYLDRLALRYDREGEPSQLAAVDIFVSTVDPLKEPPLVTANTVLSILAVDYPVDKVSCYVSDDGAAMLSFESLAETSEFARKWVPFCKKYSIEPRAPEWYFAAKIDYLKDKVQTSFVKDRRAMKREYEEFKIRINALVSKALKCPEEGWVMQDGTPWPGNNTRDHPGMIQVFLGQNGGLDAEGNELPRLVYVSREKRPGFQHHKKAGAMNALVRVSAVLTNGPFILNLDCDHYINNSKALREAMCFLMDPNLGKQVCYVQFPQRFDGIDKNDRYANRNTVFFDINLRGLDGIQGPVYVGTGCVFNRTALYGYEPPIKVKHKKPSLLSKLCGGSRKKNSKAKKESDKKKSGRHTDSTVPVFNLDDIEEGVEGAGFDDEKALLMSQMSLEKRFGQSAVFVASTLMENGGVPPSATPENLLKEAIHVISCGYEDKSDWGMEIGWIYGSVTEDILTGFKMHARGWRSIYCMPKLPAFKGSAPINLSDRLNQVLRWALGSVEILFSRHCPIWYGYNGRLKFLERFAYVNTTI
Assay: pull-down

binding result: binds
B1: His-tagged full-length CALCIUM-DEPENDENT PROTEIN KINASE32 (His-CPK32) (enzyme, Arabidopsis thaliana, UniProt Q6NLQ6 1-538, looked up)
chain: MGNCCGTAGSLAQNDNKPKKGRKKQNPFSIDYGLHHGGGDGGGRPLKLIVLNDPTGREIESKYTLGRELGRGEFGVTYLCTDKETDDVFACKSILKKKLRTAVDIEDVRREVEIMRHMPEHPNVVTLKETYEDEHAVHLVMELCEGGELFDRIVARGHYTERAAAAVTKTIMEVVQVCHKHGVMHRDLKPENFLFGNKKETAPLKAIDFGLSVFFKPGERFNEIVGSPYYMAPEVLKRNYGPEVDIWSAGVILYILLCGVPPFWAETEQGVAQAIIRSVLDFRRDPWPKVSENAKDLIRKMLDPDQKRRLTAQQVLDHPWLQNAKTAPNVSLGETVRARLKQFTVMNKLKKRALRVIAEHLSDEEASGIREGFQIMDTSQRGKINIDELKIGLQKLGHAIPQDDLQILMDAGDIDRDGYLDCDEFIAISVHLRKMGNDEHLKKAFAFFDQNNNGYIEIEELREALSDELGTSEEVVDAIIRDVDTDKDGRISYEEFVTMMKTGTDWRKASRQYSRERFNSISLKLMQDASLQVNGDTR
